Assays:
M. incognita J2 = test: In vitro live/dead count of M. incognita J2 in solution without soil (Example 2); type: cell-based; conditions: after 40 hs of observation, at the nematicidal concentration
Description: Eggs of M. incognita race 1 from North Carolina State University, USA were collected from tomato-infected roots grown in a glasshouse at 23° C. in a 16:8 h light-dark regime. Eggs were extracted using 1% hypochlorite (NaClO) solution (Hussey and Barker, 1973) or by picking egg masses from tomato-infected roots. Juveniles (J2) were hatched from the eggs and egg masses in water. Heterodera glycines eggs were obtained from soil samples stored in Rothamsted-Research. Second stage juveniles (J2) were hatched from the eggs in water after 10 days. Pratylenchus penetrans were a gift from Dr. Deeren Anne-Marie from the Institute for Agricultural and Fisheries Research, Merelbeke, Belgium. The beneficial nematodes Steinernema feltiae and Heterorhabditis megidis were a gift from Dr. Paul Williams from Becker Underwood. […]
Control wells were set up which contained J2s and distilled water with 16 mM L-cysteine. […] The actual number of active J2s per well was counted with the aid of an Olympus inverted microscope, prior to the addition of the enzymes, and then the J2s were incubated in the dark at room temperature for 2 hs, 16 hs, 24 hs or 40 hr. The number of live and dead J2s per well was counted after each enzyme incubation. […]

Meloidogyne spp. eggs = test: Effect on eggs, hatching and development of Meloidogyne spp.; type: cell-based
Description: To determine if the enzymes affected the eggshell and/or the development and hatching of the juveniles which the eggs contain, approximately 300 Meloidogyne spp. eggs were incubated per well of a 48-well plate, in duplicate, in 50 μM (active enzyme) papain, prepared in 16 mM L-cysteine dissolved in distilled water, or distilled water with and without 16 mM L-cysteine. The number of eggs in each well was counted before the addition of papain and then the eggs were incubated in the dark at room temperature for 4 h. The number of eggs was counted before further incubation overnight. Finally, closer examination of the structure of the nematode eggs was performed using the light microscope at ×40 magnification.

Heterorhabditis megidis = test: In vitro effect on the beneficial nematode Heterorhabditis megidis; type: cell-based
Description: Eggs of M. incognita race 1 from North Carolina State University, USA were collected from tomato-infected roots grown in a glasshouse at 23° C. in a 16:8 h light-dark regime. Eggs were extracted using 1% hypochlorite (NaClO) solution (Hussey and Barker, 1973) or by picking egg masses from tomato-infected roots. Juveniles (J2) were hatched from the eggs and egg masses in water. Heterodera glycines eggs were obtained from soil samples stored in Rothamsted-Research. Second stage juveniles (J2) were hatched from the eggs in water after 10 days. Pratylenchus penetrans were a gift from Dr. Deeren Anne-Marie from the Institute for Agricultural and Fisheries Research, Merelbeke, Belgium. The beneficial nematodes Steinernema feltiae and Heterorhabditis megidis were a gift from Dr. Paul Williams from Becker Underwood.
Control wells were set up which contained J2s and distilled water with 16 mM L-cysteine. Each enzyme concentration and the controls were set up in duplicate (i.e. n=2). The actual number of active J2s per well was counted with the aid of an Olympus inverted microscope, prior to the addition of the enzymes, and then the J2s were incubated in the dark at room temperature for 2 hs, 16 hs, 24 hs or 40 hr. The number of live and dead J2s per well was counted after each enzyme incubation. The same procedure was followed when setting up further experiments to compare the effects of these enzymes with Heterodera glycines J2, Pratylenchus penetrans, Steinernema feltiae and Heterorhabditis megidis.
The beneficial nematodes Hetorhabditis megidis and Steinernema feltiae were incubated with dilutions of actinidin, bromelain and pappain from papaya latex (see concentrations used in table 3). These nematodes reacted differentially to these cysteine proteinases (Tables 4 and 5). […] S. feltiae were dead at all concentrations of actinidin tested. […] After 16 hs of observation the enzyme solutions were diluted with water (to half of the initial concentrations) however, no change in nematode movement was observed after 24 hs.

Meloidogyne spp. J2s = test: Light microscopy and SEM of cuticle damage of Meloidogyne spp. J2s; type: cell-based, M. incognita or M. javanica
Description: Approximately 1000 J2s (second juvenile stage) of M. incognita or M. javanica were incubated per well of a 48-well plate with the following active enzyme concentrations (determined by E-64 titration) of papain dissolved in distilled water containing 16 mM L-cysteine (to activate the cysteine proteinase): 1.5 μM, 3 μM, 6.25 μM, 12.5 μM, 25 μM, 50 μM, 75 μM and 100 μM. Control wells contained J2s and distilled water with and without 16 mM L-cysteine, or J2s and 1 mM E-64, with and without 50 μM (active enzyme) papain, which had been preincubated for 25 mins at 40° C. Each enzyme concentration and the controls were set up in duplicate (n=2) or triplicate (n=3). The number of active J2s per well was counted prior to the addition of papain, and then the J2s were incubated in the dark at room temperature for 3 h. The number of mobile J2s per well was counted after 60, 120 and 180 mins. The nematode surfaces were examined for signs of damage using a light microscope (Zeiss Axioskop) at ×20, ×40 and ×100 magnification and photographs were taken with a Xillix Microimager. The same procedure was followed when setting up further experiments to compare the effects of 25 μM papain, 25 μM crude papaya latex (0.625 g/ml), 25 μM stem bromelain (0.18 g/ml) and 25 μM actinidin (active enzyme concentrations) with M. incognita, M. javanica or G. rostochiensis.
The effects on the J2 cuticle were more closely examined by scanning electron microscopy (SEM). Approximately 2000 J2s were used per enzyme or control treatment. These J2s were added to each of four 5 ml tubes and centrifuged at 2500 rpm 4° C. for 5 mins. The supernatant was removed and the J2s were resuspended with 500 μl of 100 μM papain, 100 μM actinidin (active enzyme concentrations) or distilled water with and without 16 mM L-cysteine (the enzyme dilutions were prepared with 16 mM L-cysteine dissolved in distilled water). The nematodes were incubated in the dark at ambient temperature for 4 h before centrifugation as above. The J2s were immediately fixed with 2.5% glutaraldehyde in 0.15M phosphate buffer, pH 7.2 for 1 h at room temperature and were then centrifuged as before prior to washing for 1 h in 0.15M phosphate buffer, pH 7.2 at 4° C. These J2s were then prepared for SEM as described previously by Stepek et al. (2005).

B1: papain (protein, UniProt P00784 134-345, looked up)
Papain: IPEYVDWRQKGAVTPVKNQGSCGSCWAFSAVVTIEGIIKIRTGNLNEYSEQELLDCDRRSYGCNGGYPWSALQLVAQYGIHYRNTYPYEGVQRYCRSREKGPYAAKTDGVRQVQPYNEGALLYSIANQPVSVVLEAAGKDFQLYRGGIFVGPCGNKVDHAVAAVGYGPNYILIKNSWGTGWGENGYIRIKRGTGNSYGVCGLYTSSFYPVKN
notes: cysteine proteinase from Carica papaya, Merops C01.001, Sigma P3125
recovery of movement (M. incognita J2): not able to recover movement | hatching and development of the J2 stage (Meloidogyne spp. eggs; incubation of the eggs with enzyme): not affected | effect on eggs / structure of the eggs (Meloidogyne spp. eggs; light microscopy, up to overnight incubation): remained unaffected | effect on H. megidis (Heterorhabditis megidis; papain 15 μM): not affected anymore | movement of H. megidis (Heterorhabditis megidis; papain 62.4 μM): moving slowly | visible effects on the surface of the nematodes (Meloidogyne spp. J2s; papain 1.5 μM and 3 μM, light microscopy): no visible effects on the surface | digestion of the cuticle at the anterior end (light micrographs) (Meloidogyne spp. J2s; papain 6.25 μM and 100 μM active enzyme, 3 h): Digestion of the cuticle was evident | appearance of the internal structures (light micrographs) (Meloidogyne spp. J2s; papain 100 μM, 3 h): abnormal granular appearance of the internal structures | active enzyme concentration causing blistering of the cuticle (Meloidogyne spp. J2s; papain, light microscopy x40 and x100, anterior end): above 6.25 μM

Source: patent publication US20110239327A1, “Nematicidal Effects of Cysteine Proteinases and Methods of Use Thereof to Treat Nematode Infestation” (priority 2007, published 2011)
